In US20240052061A1 (PURINOMIA BIOTECH, published 2024):

T1: human ecto-nucleoside triphosphate diphosphohydrolase-3 (NTPDase3) (human, UniProt O75355 1-529)
T1 sequence (looked up): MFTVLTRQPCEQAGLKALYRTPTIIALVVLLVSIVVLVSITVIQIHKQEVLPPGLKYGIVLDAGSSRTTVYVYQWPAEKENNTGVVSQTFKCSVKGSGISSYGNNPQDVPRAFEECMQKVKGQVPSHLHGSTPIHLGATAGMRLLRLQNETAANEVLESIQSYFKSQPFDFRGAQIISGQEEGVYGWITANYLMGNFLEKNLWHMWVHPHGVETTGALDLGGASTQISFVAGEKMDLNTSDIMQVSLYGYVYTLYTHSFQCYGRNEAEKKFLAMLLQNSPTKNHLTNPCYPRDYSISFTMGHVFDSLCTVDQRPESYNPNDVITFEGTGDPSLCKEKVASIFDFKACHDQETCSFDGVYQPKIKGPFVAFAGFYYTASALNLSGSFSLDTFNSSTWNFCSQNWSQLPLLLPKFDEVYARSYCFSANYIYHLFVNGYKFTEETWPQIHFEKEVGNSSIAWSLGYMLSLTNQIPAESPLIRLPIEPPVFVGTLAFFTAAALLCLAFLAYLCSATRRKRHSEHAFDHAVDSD

B1: 3E9 Hu/Ra (antibody, V domains shown)
VH: QSLEESGGDLVKPGASLTLTCTASGFSFSSSDWICWVRQAPGKGLEWIACIYAGSIGGAYFASWVNGRFTISRASSTTVTLQMTSLTAADTATYFCARSSSNGRLKLDQFDLWGPGTLVTVSS
VL: AYDMTQTPASVEVAVGGTVTINCQASQSIGGWLSWYRQKPGQPPSLLIYKASTLASGVSSRFSGTGSRTHFTLTINGVQCADAATYYCQQGSAADVANTFGGGTEVVVKG
B2: 38D12 Hu/Ra (antibody, V domains shown)
VH: QSVEESGGRLVTPGTPLTLTCTVSGFSLSSYVINWVRQAPGKGLEWIGTISSSGSTYYASWAKGRFTISTTSSTTVDLKITSPTTEDTATYFCARGADGAFISDYFNIWGPGTLVTVSS
VL: DIVMTQTPSSVSAAVGGTVTIKCQANENIDSWLAWYQQKPGQRPKLLIYYASTLASGVPSRFKGSGSGTEYTLTISDLECADGATYYCQSYDTISDYGVGFGGGTEVVVKG
B3: 38D5 Hu/Ra (antibody, V domains shown)
VH: QELVESGGGLVQPGGSLKLSCKASGIDFNNYGISWVRQAPGKGLEWIAYKYPGFGIRNYANSVKGRFTISSDNAQNTVFLQMTSLAASDTATYFCARGARYRHDDYGALNLWGPGTLVTVSS
VL: DIVMTQTPPSVSAAVGGTVTINCQASQSVTNLLAWYQQKPGQPPKLLIYGASNLESGVPSRFRGSGSGTEFTLTISGMKAEDAATYYCQSGYYSANTFGAGTKVGIKR
B4: 4F9 Hu/Ra (antibody, V domains shown)
VH: QSVEESGGRLVTPGTPLTLTCTVSGFSLSSYAMGWVRQAPGKGLEFIGIITYNGNTYYASWAKGRFPISKTSSTTVDLKMTSPTTEDTATYFCARARYGGYSTNSYYLNIWGPGTLVTVSS
VL: DVVMTQTPASVSAAVGGTVTINCQASENIYRILAWYQQKPGQRPKLLIYGASNLETGVPSRFKGSGSGTEYTLTISDLECDDAATYYCQGVLYNSNDSTFGGGTEVVVKG
B5: 42D8 Hu/Ra (antibody, V domains shown)
VH: QSVEESGGRLVTPGTPLTLTCTVSGFSLSSYAMGWVRQAPGKGLEFIGIITYNSNTYYANWAKGRFPISKTSSTTVDLKMTSPTTEDTATYFCARARYGGYSTNSYYLNIWGPGTLVTVSS
VL: DVVMTQTPASVSAAVGGTVTINCQASENIYRILAWYQQKPGQPPKLLIYGASNLETGVPSRFKGSGSGTEYTLTISDLECDDAATYYCQGVLYNSNDSTFGGGTEVVVKG
B6: 37H1 Hu/Ra (antibody, V domains shown)
VH: QSVEESGGRLVTPGTPLTLTCTVSGFSLSSYAVGWVRQAPGKGLEFIGIITYNGATYYASWAEGRFPISKTSSTTVDLKMTSPTTEDTATYFCARARYGGYSTNSYYLNIWGPGTLVTVSS
VL: DVVMTQTPASVSAAVGGTVTINCQASENIYRILAWYQQKPGQRPKLLIYGASNLETGVPSRFKGSGSGTEYTLTISDLECDDAATYYCQGVLWNSNDSTFGGGTEVVVKG
B7: 16D4 Hu/Ra (antibody, V domains shown)
VH: QSVEESGGRLVTPGTPLTLTCTVSGFSLSSYAMGWVRQAPGKGLEFIGIITYNGGTYYASWAKGRFPISKTSSTTVDLKMTSPTTEDTATYFCARARYGGYSTNSYYLNIWGPGTLVTVSS
VL: DVVMTQTPASVSAAVGGTVTINCQASENIYRVLAWYQQKPGQRPKLLIYGASNLETGVPSRFKGSGSGTEYTLTISDLECDDAATYYCQGVLYDNNDSTFGGGTEVVVKG
B8: 8E1 Hu/Ra (antibody, V domains shown)
VH: QSVEESGGRLVTPGTPLTLTCTVSGFSLSSYAMGWVRQAPGKGLEFIGIISYSGNTYYASWAKGRFPISKTSSTTVDLKMTSPTTEDTANYFCARARYGGYSTNSYYLNIWGPGTLVTVSS
VL: DVVMTQTPASVEAAVGGTVTINCQASENIYRVLAWYQQKPGQRPKLLIYGASNLESGVPSRFKGSGSGTDYTLTISDLECDDAATYYCQGVVYNSDDSAFGGGTEVVVKG
B9: 44H5 Hu/Ra (antibody, V domains shown)
VH: QEQLEESGGDLVKPEGSLTLTCTASGFDSSSTYYMCWVRQAPGKGLEWSGCIYTGGLTYYASWAKGRFTISKTSSTTVTLQMTSLTAADTATYFCASYIGSRFYMPGFSLWGPGTLVTVSS
VL: AIVMTQTPSSKSVPVGDTVTINCQASESIYSNNRLAWFQQKPGQPPKLLIYLASTLASGVPSRFKGSGSGTQFTLTISDVVCDDAATYYCAGYKGSSTDGTAFGGGTEVVVKG
B10: PBI #30af4 hIgG1 (antibody, V domains shown)
VH: QVQLQESGGGLIQPGGSLRLSCAASGFTSSSSDYAMSWVRQAPGKGLEWVSSISGSGVSTYYADSVKGRFTISRDNSKNTLYVQMTSLTAEDTAVYYCAKVVGYSVYDYYYHYALDVWGQGTTVTVSS
VL: QPVLTQPPSASGTPGQRVTISCSGSSSNIGSNTVNWYQQLPGTAPKLLIYSDNQRPSGVPDRFSGSKSGTSASLTISGLKTEDEAGYYCQSDDTSNVVFGGGTKVTVL
B11: PBI #30af4 hIgG4 (antibody, V domains shown)
VH: QVQLQESGGGLIQPGGSLRLSCAASGFTSSSSDYAMSWVRQAPGKGLEWVSSISGSGVSTYYADSVKGRFTISRDNSKNTLYVQMTSLTAEDTAVYYCAKVVGYSVYDYYYHYALDVWGQGTTVTVSS
VL: QPVLTQPPSASGTPGQRVTISCSGSSSNIGSNTVNWYQQLPGTAPKLLIYSDNQRPSGVPDRFSGSKSGTSASLTISGLKTEDEAGYYCQSDDTSNVVFGGGTKVTVL
B12: 38D5 hIgG1 (antibody, V domains shown)
VH: EQQLLESGGGLVQPGGSLRLSCAASGIDFNNYGISWVRQAPGKGLEWIAYKYPGFGIRNYANSVKGRFTISSDNSKNTVYLQMNSLRAEDTAVYFCARGARYRHDDYGALNLWGPGTLVTVSS
VL: DIQMTQSPSTLSASVGDRVTITCQASQSVTNLLAWYQQKPGKPPKLLIYGASNLESGVPSRFSGSGSGTEFTLTISSLQPDDFATYYCQSGYYSANTFGPGTKVDIK
B13: 38D5 hIgG4 (antibody, V domains shown)
VH: EQQLLESGGGLVQPGGSLRLSCAASGIDFNNYGISWVRQAPGKGLEWIAYKYPGFGIRNYANSVKGRFTISSDNSKNTVYLQMNSLRAEDTAVYFCARGARYRHDDYGALNLWGPGTLVTVSS
VL: DIQMTQSPSTLSASVGDRVTITCQASQSVTNLLAWYQQKPGKPPKLLIYGASNLESGVPSRFSGSGSGTEFTLTISSLQPDDFATYYCQSGYYSANTFGPGTKVDIK

Legend:
[1] = biological target: T1, human ecto-nucleoside triphosphate …; experiment: cell-based or functional assay
[2] = biological target: T1, human ecto-nucleoside triphosphate …; experiment: cell-based or functional assay; remark: listed apart in the source

Row | Binder | ADCC EC50 (µg/mL), NFAT luciferase reporter Jurkat/hCD16a-158V [1] [µg/mL] | Enzyme Activity Inhibition Capacity: % of Maximal Inhibition [1] [%] | EC50 of hENTPD3 enzyme activity inhibition, CHO-hENTPD3 cells, antibody 30 minutes [2] [µg/mL] | enzyme activity inhibition capacity, maximal inhibition [2] [%] | CDC % of Maximal Cytotoxicity [1] [%] | CDC EC50 [1] [µg/mL] | Enzyme Activity Inhibition Capacity: EC50 [1] [µg/mL] | ADCC fold increase in relation to parental clone at 1 µg/mL [1] [fold]
1 | B1 | 0.044 | 6 |  |  |  |  |  | 
2 | B2 | 0.059 | 9 |  |  |  |  |  | 
3 | B3 | 0.104 | 44 | 15.9 | ~40 | 1 | 1.73 | 0.31 | 
4 | B4 | 0.064 | 12 |  |  |  |  |  | 
5 | B5 | 0.072 | 12 |  |  |  |  |  | 
6 | B6 | 0.044 | 9 |  |  |  |  |  | 
7 | B7 | 0.053 | 9 |  |  |  |  |  | 
8 | B8 | 0.075 | 5 |  |  | 13 | 0.239 |  | 
9 | B9 | 0.045 | 15 |  |  |  |  |  | 
10 | B10 | 0.434 | 91 |  | ~100 |  |  | 0.82 | 2.8
11 | B11 |  | 95 |  | ~100 |  |  | 1.33 | 
12 | B12 | 0.104 | 43 |  |  | 4 | 0.694 | 0.22 | 1.2
13 | B13 |  | 41 |  |  |  |  |  | 
